# Source: publication PMC3972757
# What was measured:
# [1] = biological target: catalytic domain of AMSH, AMSH 219-424 E280A (human) (UniProt O95630); assay: ITC
# [2] = biological target: catalytic domain of AMSH, AMSH 219-424 E280A (human) (UniProt O95630); assay: AUC
# [3] = biological target: ubiquitin (Homo sapiens) (UniProt P0CG48); assay: biosensor; settings: cited from earlier work
# Chain of catalytic domain of AMSH, AMSH 219-424 E280A (human) (O95630 219-424 E280A): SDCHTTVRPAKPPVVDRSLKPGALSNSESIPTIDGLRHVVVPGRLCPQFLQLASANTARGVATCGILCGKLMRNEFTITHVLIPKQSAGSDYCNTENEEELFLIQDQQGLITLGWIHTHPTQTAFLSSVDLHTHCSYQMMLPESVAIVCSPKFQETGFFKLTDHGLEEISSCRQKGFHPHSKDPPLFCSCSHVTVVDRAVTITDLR
# Chain of STAM UIM (Q92783 168-193): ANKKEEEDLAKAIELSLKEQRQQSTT
Substance,Kd [1],dH [1],stoichiometry N [2],Kd [3]
SH3 domain of STAM2 (from UniProt O75886 202-261) (domain or fragment),1.4 µM,-15.1 kcal/mol,1,
STAM UIM (from UniProt Q92783),,,,182 µM
